Here are results for 1 molecule from article PMC5931632, “A multi-antigenic MVA vaccine increases efficacy of combination chemotherapy against Mycobacterium tuberculosis” (PLoS ONE, 2018).

In this assay the target is T1, Rv0287 (Mycobacterium tuberculosis, UniProt O53692 1-97).
T1 sequence: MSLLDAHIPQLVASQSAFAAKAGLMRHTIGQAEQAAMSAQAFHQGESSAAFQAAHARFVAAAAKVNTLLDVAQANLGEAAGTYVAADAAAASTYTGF
Briefly: pull-down. The note with it: both partners purified.

B1: TB10.4 (natural protein)
chain: MSQIMYNYPAMLGHAGDMAGYAGTLQSLGAEIAVEQAALQSAWQGDTGITYQAWQAQWNQAMEDLVRAYHAMSSTHEANTMAMMARDTAEAAKWGG
notes: also called Rv0288
B1: the binding result is “binds”.
